Measured values as given in PMC9019252.

How the values were obtained:
[1] = molecular target: PABPC1 RRM2 (human, UniProt P11940 100-190); experiment: ITC
[2] = molecular target: PABPC1 RRM2/3 (human, UniProt P11940 100-289); experiment: ITC
[3] = molecular target: PABPC1 RRM1 (human, UniProt P11940 1-99); experiment: ITC
[4] = molecular target: PABPC1 RRM4 (human, UniProt P11940 290-371); experiment: ITC
[5] = molecular target: PABPC1 RRM3 (human, UniProt P11940 191-289); experiment: ITC
[6] = molecular target: PABPC1 (full length) (human, UniProt P11940 1-636); experiment: SPR
Chain of PABPC1 (full length) (P11940 whole entry): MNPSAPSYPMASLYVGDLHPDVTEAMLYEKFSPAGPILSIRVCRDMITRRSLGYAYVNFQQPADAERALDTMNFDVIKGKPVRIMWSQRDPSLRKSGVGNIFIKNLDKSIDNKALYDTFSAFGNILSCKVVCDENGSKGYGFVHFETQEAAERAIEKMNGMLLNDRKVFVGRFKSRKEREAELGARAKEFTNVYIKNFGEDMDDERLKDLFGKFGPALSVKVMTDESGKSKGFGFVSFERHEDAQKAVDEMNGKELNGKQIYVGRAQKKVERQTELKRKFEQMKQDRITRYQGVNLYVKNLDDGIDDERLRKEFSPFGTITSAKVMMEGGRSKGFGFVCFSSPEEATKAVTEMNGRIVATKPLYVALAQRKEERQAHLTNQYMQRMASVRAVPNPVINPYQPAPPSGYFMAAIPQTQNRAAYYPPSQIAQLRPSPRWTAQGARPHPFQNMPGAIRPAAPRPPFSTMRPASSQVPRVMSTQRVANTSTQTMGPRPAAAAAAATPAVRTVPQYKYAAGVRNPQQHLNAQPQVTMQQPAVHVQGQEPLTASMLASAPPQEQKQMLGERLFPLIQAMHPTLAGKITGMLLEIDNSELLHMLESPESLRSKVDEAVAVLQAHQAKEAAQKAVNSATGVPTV

[7] = molecular target: PABPC1 RRM1/2/3/4 (human, UniProt P11940 1-370); experiment: SPR
Chain of PABPC1 RRM1/2/3/4 (P11940 1-370): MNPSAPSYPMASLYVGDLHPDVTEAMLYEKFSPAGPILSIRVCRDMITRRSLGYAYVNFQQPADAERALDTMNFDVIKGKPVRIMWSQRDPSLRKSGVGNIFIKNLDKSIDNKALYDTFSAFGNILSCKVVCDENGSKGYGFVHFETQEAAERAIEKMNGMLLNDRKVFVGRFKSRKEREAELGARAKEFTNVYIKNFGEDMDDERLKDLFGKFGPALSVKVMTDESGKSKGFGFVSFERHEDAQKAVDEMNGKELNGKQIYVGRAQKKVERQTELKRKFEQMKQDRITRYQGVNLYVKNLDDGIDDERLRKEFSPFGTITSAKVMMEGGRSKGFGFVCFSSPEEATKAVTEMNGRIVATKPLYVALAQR

Chain of PABPC1 RRM2 (P11940 100-190): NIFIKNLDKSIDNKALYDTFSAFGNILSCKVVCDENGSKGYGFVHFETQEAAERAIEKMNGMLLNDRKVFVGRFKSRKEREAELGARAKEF
Chain of PABPC1 RRM2/3 (P11940 100-289): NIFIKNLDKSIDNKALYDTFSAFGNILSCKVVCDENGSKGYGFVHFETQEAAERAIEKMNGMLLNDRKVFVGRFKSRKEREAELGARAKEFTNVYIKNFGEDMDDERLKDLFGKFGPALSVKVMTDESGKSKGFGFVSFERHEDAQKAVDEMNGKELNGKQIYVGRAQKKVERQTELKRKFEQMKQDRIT
Chain of PABPC1 RRM3 (P11940 191-289): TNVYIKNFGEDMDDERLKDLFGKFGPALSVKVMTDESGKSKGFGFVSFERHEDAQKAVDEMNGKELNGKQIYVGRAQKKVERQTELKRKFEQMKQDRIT
Chain of PABPC1 RRM1 (P11940 1-99): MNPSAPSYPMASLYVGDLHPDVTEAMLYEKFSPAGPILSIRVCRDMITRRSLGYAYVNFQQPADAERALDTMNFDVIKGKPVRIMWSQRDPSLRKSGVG
Chain of PABPC1 RRM4 (P11940 290-371): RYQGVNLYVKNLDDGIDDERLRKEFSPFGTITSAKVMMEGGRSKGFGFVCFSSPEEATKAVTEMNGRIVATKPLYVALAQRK

AAAAAAA (ssRNA) [A7]
Kd [1]: 200 ± 40 µM
Kd [2]: 0.71 ± 0.1 µM
binding result [3]: no binding
binding result [4]: no binding
Kd [5]: 4.7 ± 0.3 µM

AAAAAAAAAAAAAAAAAAAAAAAA (ssRNA) [A24]
binding result [6]: binds
binding result [7]: binds

AAAAAAAAAAAA (ssRNA) [A12]
Kd [1]: 70 ± 3 µM
Kd [2]: 0.0013 ± 0.0006 µM
